From paper PMC10641528, “A conserved, noncanonical insert in FIS1 mediates TBC1D15 and DRP1 recruitment for mitochondrial fission” (The Journal of Biological Chemistry, 2023)
Residue numbers refer to the chain shown, from its start. Names may count otherwise.

B1: FIS1 ΔSKY variant (SKY insert deleted) (natural protein, human)
chain: MEAVLNELVSVEDLLKFEKKFQSEKAAGSVSKSTQFEYAWCLVRNDDIRKGIVLLEELLPKGSKEEQRDYVFYLAVGNYRLKEYEKALKYVRGLLQTEPQNNQAKELERLIDKAMKKDGLVGMAIVGGMALGVAGLAGLIGL
notes: human FIS1 with S45, K46, Y47 deleted, expressed from pcDNA; source: HCT116, transfected, in lysate (PFA cross-linked cells)
B2: FIS1 ΔSKYD49G variant (SKY insert deleted, D49 replaced by Gly) (natural protein, human)
chain: B1 chain with D46G
notes: human FIS1 with S45, K46, Y47 deleted and D49 replaced by Gly (wildtype numbering), expressed from pcDNA; source: HCT116, transfected, in lysate (PFA cross-linked cells)
B3: Mitochondrial fission protein 1 (FIS1), wildtype, ectopically expressed from pcDNA-FIS1 WT (natural protein, human)
chain: MEAVLNELVSVEDLLKFEKKFQSEKAAGSVSKSTQFEYAWCLVRSKYNDDIRKGIVLLEELLPKGSKEEQRDYVFYLAVGNYRLKEYEKALKYVRGLLQTEPQNNQAKELERLIDKAMKKDGLVGMAIVGGMALGVAGLAGLIGL
notes: human mitochondrial fission protein 1 (FIS1), wildtype, expressed from pcDNA; No tag is mentioned; detected with an anti-FIS1 antibody; also called WT FIS1; source: HCT116, transfected, in lysate (PFA cross-linked cells)
B4: FIS1 D49G variant (natural protein, human)
chain: B3 chain with D49G
notes: human FIS1 that keeps the SKY insert, with D49 replaced by Gly, expressed from pcDNA; source: HCT116, transfected, in lysate (PFA cross-linked cells)
B5: FIS1 AAA variant (SKY insert substituted with three alanines) (natural protein, human)
chain: B3 chain with S45A, K46A, Y47A
notes: human FIS1 with S45, K46, Y47 replaced by three Ala, expressed from pcDNA; also called AAA FIS1 variant; source: HCT116, transfected, in lysate (PFA cross-linked cells)

Biological target: DRP1, endogenous (dynamin family GTPase) (human (endogenous in HCT116)) (UniProt O00429)
Sequence (O00429 whole entry): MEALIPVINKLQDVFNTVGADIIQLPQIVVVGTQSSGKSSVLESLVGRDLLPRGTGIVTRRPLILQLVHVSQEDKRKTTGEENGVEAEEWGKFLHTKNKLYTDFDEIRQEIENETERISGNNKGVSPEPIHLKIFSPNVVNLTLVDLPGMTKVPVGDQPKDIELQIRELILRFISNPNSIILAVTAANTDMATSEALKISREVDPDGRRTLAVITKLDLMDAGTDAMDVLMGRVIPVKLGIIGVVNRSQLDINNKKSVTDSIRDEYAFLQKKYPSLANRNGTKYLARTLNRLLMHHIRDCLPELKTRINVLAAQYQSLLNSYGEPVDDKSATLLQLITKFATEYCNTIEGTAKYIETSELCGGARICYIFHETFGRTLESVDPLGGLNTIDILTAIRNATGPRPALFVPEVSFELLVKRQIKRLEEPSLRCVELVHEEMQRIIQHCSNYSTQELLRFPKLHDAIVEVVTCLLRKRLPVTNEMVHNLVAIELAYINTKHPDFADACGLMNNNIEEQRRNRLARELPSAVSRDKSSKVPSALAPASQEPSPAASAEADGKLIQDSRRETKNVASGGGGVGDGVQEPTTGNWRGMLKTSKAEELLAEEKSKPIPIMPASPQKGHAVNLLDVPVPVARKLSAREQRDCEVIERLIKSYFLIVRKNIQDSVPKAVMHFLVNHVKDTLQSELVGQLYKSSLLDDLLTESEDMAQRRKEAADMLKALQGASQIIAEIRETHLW
Experiment: co-IP; endogenous DRP1 immunoprecipitated (mouse monoclonal sc-271583 on protein A/G beads) from lysates of HCT116 cells transfected with pcDNA or pcDNA-FIS1 variants and cross-linked with 0.25% PFA; FIS1 blotted; scored as ratio of immunoprecipitated to input FIS1; lysis buffer 10 mM Tris/Cl pH 7.5, 150 mM NaCl, 0.5 mM EDTA, 0.5% NP-40 substitute
Settings: not given

Work on “FIS1 5LA variant (five conserved TPR Leu residues replaced with Ala) (from UniProt Q9Y3D6 1-145) (natural protein)” yielded a ratio of immunoprecipitated to input FIS1 of 3.9.

Biological target: T1, DRP1, endogenous (dynamin family GTPase) (human (endogenous in HCT116), UniProt O00429 1-736)
T1 construct: DRP1 endogenous in HCT116 cells; Immunoprecipitated with mouse monoclonal DRP1 antibody sc-271583; source: endogenous, HCT116 lysate (PFA cross-linked cells)
T1 sequence (O00429 whole entry): as above
Experiment: as above
Settings: partners not purified

B1 and B2 are within error of each other in “ratio of immunoprecipitated to input FIS1” value (from here on “ratio of immunoprecipitated”): 1.3 ± 0.9 for the first, 0.9 ± 0.2 for the second.

B3 and B4 are the same in “ratio of immunoprecipitated” value: 0.7 ± 0.1 for the first, 0.7 ± 0.3 for the second.

In the case of B5, the “ratio of immunoprecipitated” value is reported as 0.9 ± 0.1.
